Results on one substance are retold here after patent US20250333481A1.

In this assay the target is chimeric receptor consisting of extracellular domain of BDNF receptor TrkB and transmembrane domain and cytoplasmic domain of thrombopoietin receptor c-Mpl. As to the kind of experiment: cell-based or functional assay.

On to “recombinant wild-type hBDNF (Abcam) (from UniProt P23560 129-247) (ligand)”, for which the EC50, cell proliferation of BaF/TrkB·c-Mpl chimera cells (MTS, absorbance at 490 nM) came to 1.19 nmol/L.
